Laboratory results published in the supplement of paper PMC9112550, “Optimization of the antimicrobial peptide Bac7 by deep mutational scanning” (BMC Biology, 2022).

System: Escherichia coli TOP10
Test: shrunken log2 fold change of peptide-encoding DNA abundance (4.5 h post-induction vs induction); higher = less antimicrobial activity (less host growth inhibition)
Details: time post-induction: 4.5 h; library: site-saturation at positions 5, 18, 19, 20
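Note: peptides expressed intracellularly from a pBAD plasmid library in pooled LB shake-flask culture, induced with 0.3% L-arabinose, DNA abundance read by NGS, three biological replicates, DESeq2 with apeglm shrinkage.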

Sequence	shrunken log2 fold change
RRIRIRPPRLPRPRPRPDFPPRP	0.058
RRIRFRPPRLPRPRPRPPNQPRP	0.23
RRIRVRPPRLPRPRPRPDGFPRP	-0.0085
RRIRARPPRLPRPRPRPCLNPRP	-0.424
RRIRCRPPRLPRPRPRPMHAPRP	0.315
RRIRMRPPRLPRPRPRPHDIPRP	-0.104
RRIRGRPPRLPRPRPRPTHVPRP	0.483
RRIRTRPPRLPRPRPRPYFRPRP	-0.138
RRIRARPPRLPRPRPRPIPDPRP	0.604
RRIRGRPPRLPRPRPRPFIWPRP	0.351
RRIRPRPPRLPRPRPRPFEVPRP	0.0802
RRIRLRPPRLPRPRPRPKYYPRP	-1.1
RRIRKRPPRLPRPRPRPKVFPRP	-0.0531
RRIRYRPPRLPRPRPRPITLPRP	-0.323
RRIRHRPPRLPRPRPRPRGGPRP	0.504
RRIRVRPPRLPRPRPRPYDIPRP	-0.279
RRIRKRPPRLPRPRPRPTYSPRP	-0.191
RRIRMRPPRLPRPRPRPEQVPRP	0.493
RRIRIRPPRLPRPRPRPGAHPRP	-0.0753
RRIRWRPPRLPRPRPRPHYPPRP	-0.225
RRIRLRPPRLPRPRPRPDCVPRP	0.0107
RRIRCRPPRLPRPRPRPMVHPRP	-0.452
RRIRLRPPRLPRPRPRPQERPRP	-0.839
RRIRHRPPRLPRPRPRPGFFPRP	0.0196
RRIRSRPPRLPRPRPRPCSIPRP	-0.153

Sequence	shrunken log2 fold change
RRIRTRPPRLPRPRPRPEFSPRP	0.00789
RRIRWRPPRLPRPRPRPGLDPRP	0.601
RRIRHRPPRLPRPRPRPMPQPRP	0.235
RRIRNRPPRLPRPRPRPDYQPRP	-0.165
RRIRIRPPRLPRPRPRPTKYPRP	-0.681
RRIRGRPPRLPRPRPRPETPPRP	3.43
RRIRFRPPRLPRPRPRPADCPRP	-0.282
RRIRWRPPRLPRPRPRPAEAPRP	0.0865
RRIRTRPPRLPRPRPRPEASPRP	0.00709
RRIRTRPPRLPRPRPRPQFGPRP	-0.00643
RRIRPRPPRLPRPRPRPYLRPRP	0.0823
RRIRPRPPRLPRPRPRPVRLPRP	0.238
RRIRARPPRLPRPRPRPLKTPRP	0.219
RRIRYRPPRLPRPRPRPQVGPRP	-0.0385
RRIRSRPPRLPRPRPRPMMSPRP	0.0638
RRIRQRPPRLPRPRPRPWYPPRP	-0.278
RRIRGRPPRLPRPRPRPDYFPRP	-0.0114
RRIRDRPPRLPRPRPRPGRCPRP	0.53
RRIRGRPPRLPRPRPRPKVSPRP	0.787
RRIRERPPRLPRPRPRPKSEPRP	0.196
RRIRWRPPRLPRPRPRPYYWPRP	-1.31
RRIRLRPPRLPRPRPRPCWVPRP	-0.00196
RRIRRRPPRLPRPRPRPKADPRP	0.198
RRIRGRPPRLPRPRPRPKERPRP	0.00594
RRIRPRPPRLPRPRPRPMNCPRP	-0.138

Sequence	shrunken log2 fold change
RRIRVRPPRLPRPRPRPWKAPRP	0.0634
RRIRWRPPRLPRPRPRPQITPRP	-0.216
RRIRNRPPRLPRPRPRPVPVPRP	-0.0667
RRIRYRPPRLPRPRPRPYQVPRP	-0.289
RRIRARPPRLPRPRPRPAIHPRP	-0.223
RRIRMRPPRLPRPRPRPQLHPRP	0.546
RRIRRRPPRLPRPRPRPQAHPRP	0.544
RRIRPRPPRLPRPRPRPISNPRP	-0.408
RRIRCRPPRLPRPRPRPNDLPRP	0.0432
RRIRARPPRLPRPRPRPEEEPRP	0.178
RRIRFRPPRLPRPRPRPQMMPRP	-0.313
RRIRTRPPRLPRPRPRPTKFPRP	-0.638
RRIRGRPPRLPRPRPRPILVPRP	0.133
RRIRLRPPRLPRPRPRPSVTPRP	-0.267
RRIRWRPPRLPRPRPRPMCPPRP	-0.232
RRIRQRPPRLPRPRPRPMNTPRP	0.0106
RRIRYRPPRLPRPRPRPWRKPRP	-0.296
RRIRPRPPRLPRPRPRPAPEPRP	0.346
RRIRGRPPRLPRPRPRPQIEPRP	0.462
RRIRVRPPRLPRPRPRPNQDPRP	-0.116
RRIRSRPPRLPRPRPRPSATPRP	0.168
RRIRTRPPRLPRPRPRPRTSPRP	0.098
RRIRHRPPRLPRPRPRPKVIPRP	0.109
RRIRWRPPRLPRPRPRPPCPPRP	0.138
RRIRARPPRLPRPRPRPFIDPRP	-0.554

Sequence	shrunken log2 fold change
RRIRRRPPRLPRPRPRPKFVPRP	-0.151
RRIRIRPPRLPRPRPRPRNYPRP	0.0483
RRIRNRPPRLPRPRPRPIWRPRP	0.00377
RRIRPRPPRLPRPRPRPQHHPRP	-0.302
RRIRNRPPRLPRPRPRPGVRPRP	0.212
RRIRNRPPRLPRPRPRPNSNPRP	-0.744
RRIRARPPRLPRPRPRPPWIPRP	0.38
RRIRTRPPRLPRPRPRPMICPRP	-0.0677
RRIRWRPPRLPRPRPRPADLPRP	0.331
RRIRERPPRLPRPRPRPHNKPRP	-0.787
RRIRCRPPRLPRPRPRPLFGPRP	-0.0673
RRIRPRPPRLPRPRPRPENIPRP	-0.102
RRIRDRPPRLPRPRPRPNHAPRP	-0.31
RRIRDRPPRLPRPRPRPADFPRP	-0.0606
RRIRSRPPRLPRPRPRPAICPRP	0.147
RRIRARPPRLPRPRPRPCLDPRP	0.313
RRIRGRPPRLPRPRPRPCAEPRP	1.91
RRIRVRPPRLPRPRPRPARKPRP	0.342
RRIRRRPPRLPRPRPRPIGHPRP	0.113
RRIRIRPPRLPRPRPRPEWSPRP	-0.26
RRIRFRPPRLPRPRPRPFGWPRP	0.0193
RRIRWRPPRLPRPRPRPNLLPRP	0.0966
RRIRQRPPRLPRPRPRPVECPRP	0.0104
RRIRHRPPRLPRPRPRPPMGPRP	0.343
RRIRMRPPRLPRPRPRPRASPRP	1.08

Sequence	shrunken log2 fold change
RRIRLRPPRLPRPRPRPTPPPRP	0.648
RRIRRRPPRLPRPRPRPAHRPRP	-0.059
RRIRGRPPRLPRPRPRPDWIPRP	0.243
RRIRGRPPRLPRPRPRPYFNPRP	-0.439
RRIRMRPPRLPRPRPRPLWFPRP	-0.147
RRIRHRPPRLPRPRPRPDIEPRP	0.0242
RRIRFRPPRLPRPRPRPNWCPRP	-0.107
RRIRIRPPRLPRPRPRPCVVPRP	-0.00586
RRIRDRPPRLPRPRPRPTEMPRP	0.367
RRIRTRPPRLPRPRPRPWRMPRP	-0.139
RRIRLRPPRLPRPRPRPQVRPRP	0.0635
RRIRCRPPRLPRPRPRPKHRPRP	-0.212
RRIRHRPPRLPRPRPRPRTHPRP	-0.137
RRIRGRPPRLPRPRPRPYLDPRP	0.0767
RRIRDRPPRLPRPRPRPFVEPRP	-0.0362
RRIRRRPPRLPRPRPRPVGYPRP	0.02
RRIRGRPPRLPRPRPRPVRHPRP	0.496
RRIRDRPPRLPRPRPRPYGHPRP	-0.012
RRIRMRPPRLPRPRPRPPKRPRP	1.05
RRIRQRPPRLPRPRPRPYVWPRP	-0.00378
RRIRMRPPRLPRPRPRPSIAPRP	-0.0688
RRIRKRPPRLPRPRPRPFGSPRP	-0.00822
RRIRKRPPRLPRPRPRPQKSPRP	0.0653
RRIRERPPRLPRPRPRPILYPRP	-0.615
RRIRVRPPRLPRPRPRPRQCPRP	0.33
